Substitutions are numbered along the chain they refer to.

Experiment [1] addresses T1, human CLEC12A on cells (HL60, PL21, Ba/F3-hCLEC12A) (human, UniProt Q5QGZ9 1-265).
T1 construct: Endogenous on the AML lines HL60 and PL21; brought into mouse Ba/F3 cells by retroviral transduction; The cell line stands under assay; also called CLL-1
T1 sequence: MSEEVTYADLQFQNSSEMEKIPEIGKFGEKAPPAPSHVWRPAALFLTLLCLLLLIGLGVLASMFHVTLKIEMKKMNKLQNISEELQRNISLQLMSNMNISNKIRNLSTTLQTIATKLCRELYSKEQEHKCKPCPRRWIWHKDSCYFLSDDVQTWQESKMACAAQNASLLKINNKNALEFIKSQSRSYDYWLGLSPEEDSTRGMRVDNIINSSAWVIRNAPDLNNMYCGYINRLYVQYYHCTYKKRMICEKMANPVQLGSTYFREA
The experiment in a line: flow cytometry, 40 nM, MFI after 2 h 37 C relative to 2 h on ice, PL21 cells. On the technique in general: A flow cytometer gives signals particle by particle.

The target of experiment [2] is T1, human CLEC12A on cells (HL60, PL21, …). Briefly: flow cytometry, HL60 cells.
The target is the same in experiment [3]. Briefly: flow cytometry, 40 nM, MFI after 2 h 37 C relative to 2 h on ice, HL60 cells.
Experiment [4] has the same target. Briefly: flow cytometry, Ba/F3-hCLEC12A cells.
Experiment [5] shares this target. The experiment in a line: flow cytometry, PL21 cells.
For experiment [6], the target named is T2, Human CLEC12A expressed on cells (Ba/F3-hCLEC12A, PL21, HL60) (human, UniProt Q5QGZ9 1-265).
T2 sequence: T1 sequence
The experiment in a line: cell-based or functional assay.

Experiment [7] concerns the target T2, Human CLEC12A expressed on cells …. Briefly: cell-based or functional assay. The source holds these as a separate data set.
Experiment [8] deals with T3, recombinant human CLEC12A-His (human, UniProt Q5QGZ9 65-265).
T3 construct: also called hCLEC12A-His; hCLEC12A
T3 sequence: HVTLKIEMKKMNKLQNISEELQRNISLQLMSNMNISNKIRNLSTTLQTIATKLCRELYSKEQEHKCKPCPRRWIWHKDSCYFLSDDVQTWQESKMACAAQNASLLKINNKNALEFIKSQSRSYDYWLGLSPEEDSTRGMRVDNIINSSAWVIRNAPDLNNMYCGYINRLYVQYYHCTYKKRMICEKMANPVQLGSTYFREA
The experiment in a line: SPR, purified murine mAb. (In general: Surface plasmon resonance follows binding to a sensor surface in real time, without labels.)

For experiment [9], the target named is T4, recombinant cynomolgus CLEC12A-His (cynomolgus monkey, UniProt A0A2K5WXQ4 71-271).
T4 construct: also called cCLEC12A-His; cCLEC12A
T4 sequence: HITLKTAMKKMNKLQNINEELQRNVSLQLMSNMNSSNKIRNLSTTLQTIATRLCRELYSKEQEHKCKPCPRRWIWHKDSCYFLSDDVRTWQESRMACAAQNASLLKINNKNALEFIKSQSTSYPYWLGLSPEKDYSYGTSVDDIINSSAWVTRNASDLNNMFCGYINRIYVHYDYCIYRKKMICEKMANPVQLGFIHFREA
The experiment in a line: SPR, purified murine mAb.

The target in experiment [10] is T3, recombinant human CLEC12A-His. Briefly: SPR screening.
Experiment [11] has the same target. The experiment in a line: SPR.
Experiment [12] has as its target T5, de-glycosylated hCLEC12A (human, UniProt Q5QGZ9 65-265, N-linked glycans removed (PNGase F)).
T5 construct: also called PNGase-treated hCLEC12A; De-glycosylated CLEC12A
T5 sequence: T3 sequence
The experiment in a line: SPR.

Experiment [13] has as its target T6, de-sialylated hCLEC12A (human, UniProt Q5QGZ9 65-265, terminal sialic acids removed (neuraminidase)).
T6 construct: also called De-sialylated CLEC12A
T6 sequence: T3 sequence
The experiment in a line: SPR.

B1: AB0089 TriNKET (other)
chain: QLQLQESGPGLVKPSETLSLTCTVSGFSLTNYGLHWIRQPPGKCLEWIGVIWVGGATDYNPSLKSRVTISVDTSKNQFSLKLSSVQAADTAVYYCAKGDYGDTLDYWGQGTLVTVSSGGGGSGGGGSGGGGSGGGGSDIQMTQSPSSLSASVGDRVTITCHASQNINFWLSWYQQKPGKAPKLLIYEASNLHTGVPSRFSGSGSGTDFTLTISSLQPEDFATYYCQQSHSYPLTFGCGTKLEIKGSDKTHTCPPCPAPELLGGPSVFLFPPKPKDTLMISRTPEVTCVVVDVSHEDPEVKFNWYVDGVEVHNAKTKPREEQYNSTYRVVSVLTVLHQDWLNGKEYKCKVSNKALPAPIEKTISKAKGQPREPRVYTLPPCRDELTKNQVSLTCLVKGFYPSDIAVEWESNGQPENNYKTTPPVLVSDGSFTLYSKLTVDKSRWQQGNVFSCSVMHEALHNHYTQKSLSLSPG
heavy: EVQLVESGGGLVKPGGSLRLSCAASGFTFSSYSMNWVRQAPGKGLEWVSSISSSSSYIYYADSVKGRFTISRDNAKNSLYLQMNSLRAEDTAVYYCARGAPIGAAAGWFDPWGQGTLVTVSSASTKGPSVFPLAPSSKSTSGGTAALGCLVKDYFPEPVTVSWNSGALTSGVHTFPAVLQSSGLYSLSSVVTVPSSSLGTQTYICNVNHKPSNTKVDKKVEPKSCDKTHTCPPCPAPELLGGPSVFLFPPKPKDTLMISRTPEVTCVVVDVSHEDPEVKFNWYVDGVEVHNAKTKPREEQYNSTYRVVSVLTVLHQDWLNGKEYKCKVSNKALPAPIEKTISKAKGQPREPQVCTLPPSRDELTENQVSLTCLVKGFYPSDIAVEWESNGQPENNYKTTPPVLDSDGSFFLYSWLTVDKSRWQQGNVFSCSVMHEALHNHYTQKSLSLSPG
light: DIQMTQSPSSVSASVGDRVTITCRASQGISSWLAWYQQKPGKAPKLLIYAASSLQSGVPSRFSGSGSGTDFTLTISSLQPEDFATYYCQQGVSFPRTFGGGTKVEIKRTVAAPSVFIFPPSDEQLKSGTASVVCLLNNFYPREAKVQWKVDNALQSGNSQESVTEQDSKDSTYSLSSTLTLSKADYEKHKVYACEVTHQGLSSPVTKSFNRGEC
notes: F3' format TriNKET
The EC50 is the concentration giving half of the maximal effect. Low values mean an effect from little substance, high ones a need for much substance. On to B1, for which the percent surface retention was determined as 124% in [1] and 147% in experiment [3]. For the same molecule, the EC50 was 1.08 nM in experiment [2], 2.28 nM in [4] and 0.34 nM in experiment [5]. Besides, the figures for the “FOB (fold over background)” value in [2], in experiment [4] and in experiment [5] were 70 fold, 434 fold and 16 fold, respectively.

B2: AB0305 mAb (Humanized 1739 anti-CLEC12A mAb) (antibody, V domains shown)
VH: QLQLQESGPGLVKPSETLSLTCTVSGFSLTNYGLHWIRQPPGKGLEWIGVIWVGGATDYNPSLKSRVTISVDTSKNQFSLKLSSVQAADTAVYYCAKGDYGDTLDYWGQGTLVTVSS
VL: DIQMTQSPSSLSASVGDRVTITCHASQNINFWLSWYQQKPGKAPKLLIYEASNLHTGVPSRFSGSGSGTDFTLTISSLQPEDFATYYCQQSHSYPLTFGSGTKLEIK
Consider B2, for which the “EC50, primary NK mediated cytotoxic killing of PL21 cells” value in experiment [6] is 1.85 nM. In experiment [7], the “% Max, ADCP activity of M0 macrophages against PL21 cells” value is 10% and the “EC50, ADCP activity of M0 macrophages against PL21 cells” value is 0.02 nM.

B3: AB0305 mAb (Humanized 1739 anti-CLEC12A mAb) (antibody, IgG1, V domains shown)
VH: B2 VH
VL: B2 VL
notes: Parental hIgG1 mAb; also called parental mAb of AB0089
B3: the percent surface retention was found to be 92% in experiment [1] and 90% in experiment [3]. Moreover, the EC50 in experiment [2] amounted to 0.12 nM; in experiment [4] it was 0.67 nM; in experiment [5], 0.12 nM. In addition, the “FOB (fold over background)” value in [2] is 53 fold; in [4] it was 279 fold; in experiment [5] it was 15 fold.

B4: AB0037 mAb (Humanized 1602 anti-CLEC12A mAb) (antibody, V domains shown)
VH: B2 VH with V53S, A56K, V71K, G98Y, G101D, T103S
VL: B2 VL with D70R, F83I, S100G
notes: Parental mAb of AB0237; also called humanized mAb 16B8.C8; parental mAb of AB0237
Consider B4, for which the percent surface retention in [1] stood at 79%; in experiment [3] it was 74%. The 50% effective concentration (EC50) is 0.52 nM in experiment [2], 1.4 nM in experiment [4] and 0.52 nM in [5]. Further, the “FOB (fold over background)” value in [2] stood at 51 fold; in experiment [4], 301 fold; in experiment [5], 13 fold.

B5: AB0306 mAb (Humanized 1797 anti-CLEC12A mAb) (antibody, IgG1, V domains shown)
VH: EVQLVESGGGVVQPGGSLRLSCAASGFTFNAFGMHWVRQAPGKGLEWVAFISSGSTSIYYANTVKGRFTISRDNSKNTLYLQMNSLRAEDTAVYYCARDGYPTGGAMDYWGQGTSVTVSS
VL: DIQMTQSPSSLSASVGDRVTITCKASQDIYNYLSWFQQKPGKAPKPLIYRANILVSGVPSRFSGSGSGQDYTFTISSLQPEDIATYYCLQFDAFPFTFGSGTKLEIK
notes: Parental hIgG1 mAb of AB0192; also called parental mAb of AB0192
Consider B5, for which the percent surface retention in [1] was found to be 106%; in experiment [3], 114%. Moreover, the 50% effective concentration (EC50) was determined as 0.26 nM in experiment [2], 0.68 nM in [4] and 0.18 nM in [5]. Also, the “FOB (fold over background)” value was 47 fold in experiment [2], 303 fold in experiment [4] and 12 fold in experiment [5].

B6: 15A10.G8 (antibody, V domains shown)
VH: EVQLQESGAELVRSGASIKLSCAASAFNIKDYFIHWVRQRPDQGLEWIGWIDPENDDTEYAPKFQDKATMTADTSSNTAYLQLSSLTSADTAVYYCNALWSRGGYFDYWGQGTTLTVSS
VL: EVLLTQSPAIIAASPGEKVTITCSARSSVSYMSWYQQKPGSSPKIWIYGISKLASGVPARFSGSGSGTYFSFTINNLEAEDVATYYCQQRSYYPFTFGSGTKLEIK
notes: Murine mAb
The term Kd denotes a measure of binding affinity in units of concentration. What is called koff is the first-order rate constant of dissociation. As a reminder, the kon is a measure of how fast the partners come together. Regarding B6, in experiment [8], the dissociation constant Kd amounted to 1.6 nM, the dissociation rate constant (koff) came to 0.000494 s⁻¹ and the kon was 301000 M⁻¹ s⁻¹. Also, in [9], the Kd came out at 3.3 nM, the koff is 0.000659 s⁻¹ and the on-rate (kon) is 196000 M⁻¹ s⁻¹.

B7: m9F11-hIgG1 (antibody, V domains shown)
VH: EVQLQESGGGLVQPGGSRKLSCAASGFTFNSFGMHWVRQAPEKGLEWVAFISSGSTSIYYANTVKGRFTISRDNPKNTLFLQMTSLRSEDTAMYYCARDGYPTGGAMDYWGQGTSVTVSS
VL: DIKMTQSPSSMYASLGERVTITCKASQDIYNYLSWFQLKPGKSPRPLIYRANILVSGVPSKFSGSGSGQDYSLTINSLEYEDLGIYYCLQFDAFPFTFGSGTKLEIK
notes: also called chimeric parent mouse 9F11.B7 mAb
Turning to B7, in experiment [10], the Kd turned out to be 1.07 nM, the dissociation rate constant (koff) came to 0.00102 s⁻¹ and the on-rate constant (kon) is 950000 M⁻¹ s⁻¹.

B8: Murine F3'-9F11 (other)
VH: B7 VH
VL: B7 VL
notes: the text calls it clone 9F11.B7; F3' construct (scFv order, Fc, NKG2D Fab) not spelled out
Regarding B8, in experiment [11], the Kd came to 0.96 nM, the dissociation rate constant (koff) worked out at 0.00111 s⁻¹ and the kon amounted to 1.15e+06 M⁻¹ s⁻¹. In experiment [12], this molecule registered a Kd of 0.34 nM, an off-rate constant (koff) of 0.000374 s⁻¹ and a kon of 1.11e+06 M⁻¹ s⁻¹. In [13], this molecule gave a Kd of 0.62 nM, a koff of 0.00098 s⁻¹ and a kon of 1.58e+06 M⁻¹ s⁻¹.
